Data published in article PMC10267887.
Values joined by “and” are separate entries in the source; they are usually repeats but may differ in a detail not shown here. Equal entries are not always repeated.

Columns and labels:
[1] = molecular target: fibroblast growth factor 2 fused to GFP (FGF2-GFP), His-tagged (UniProt P09038); experiment: dual(+1)-FCS (brightness analysis by fluorescence correlation spectroscopy); as a1; FINAL state (t >= 240 min), (leaky to leaky) GUVs only
[2] = molecular target: fibroblast growth factor 2 fused to GFP (FGF2-GFP), His-tagged (UniProt P09038); experiment: dual(+1)-FCS (brightness analysis by fluorescence correlation spectroscopy); 200 nM FGF2-GFP on immobilised GUVs of plasma-membrane-like lipids with 2 mol % PI(4,5)P2, HEPES buffer (25 mM HEPES, 150 mM NaCl, pH 7.4); average oligomeric state per GUV; FINAL state (t >= 240 min), permeabilized (leaky) GUVs
[3] = molecular target: fibroblast growth factor 2 fused to GFP (FGF2-GFP), His-tagged (UniProt P09038); experiment: dual(+1)-FCS (brightness analysis by fluorescence correlation spectroscopy); as a1; INITIAL state (t = 60-120 min), leaky, (leaky to leaky) GUVs

stoichiometry N [1]: < 10 m.u. and 4.21 m.u.
stoichiometry N [2]: 2 and 6
stoichiometry N [3]: 2 and 6
Substance: fibroblast growth factor 2 fused to GFP (FGF2-GFP), His-tagged (from UniProt P09038 1-288) (natural protein)
